Assay results published in patent publication US20230365684A1 (Janssen / Centocor, published 2023).

Tests used:
[1] = target: T1, human CD33 (full length ECD), recombinant (human, UniProt P20138 18-259); assay: SPR (Biacore 8K), vHH-mono-Fc captured by anti-human Fc, antigen in solution
T1 construct: extracellular domain; Tag or HSA fusion partner unknown; also called hu CD33 (FL ECD); hCD33-FL ECD
Procedure: (§1) The binding affinity of anti-CD33 antibodies and Llama vHHs to the recombinant human CD33 (FL ECD or IgC2 domain) was determined by surface plasmon resonance (SPR) using Biacore 8K instrument. […] The association and dissociation were monitored for 2 and 30 minutes, respectively, using a flow rate of 50 μL/min. Raw binding data was referenced by subtracting the analyte binding signals from blanks and analyzed using a 1:1 Langmuir binding model using the Biacore software to obtain the kinetics which were used to calculate the binding affinity.
The anti-CD33 Llama vHHs on a mono-Fc backbone were captured using an anti-human Fc antibody and the antigens were injected in solution.

[2] = target: T1, human CD33 (full length ECD), …; assay: SPR (Biacore 8K), antibody captured by anti-human Fc, antigen in solution
Procedure: (§2) Affinities (KD) for the interaction of anti-CD33 antibodies human CD33 (full length ECD and IgC2 domain) were obtained by SPR. The anti-CD33 antibodies were captured using an anti-human Fc antibody and the antigens were injected in solution.
as §1

[3] = target: T2, human CD33 IgC2 domain, recombinant (human, UniProt P20138 136-259); assay: as above
T2 construct: domain: IgC2; also called hu CD33 (IgC2); hCD33-IgC2
T2 sequence (P20138 136-259 limits assumed): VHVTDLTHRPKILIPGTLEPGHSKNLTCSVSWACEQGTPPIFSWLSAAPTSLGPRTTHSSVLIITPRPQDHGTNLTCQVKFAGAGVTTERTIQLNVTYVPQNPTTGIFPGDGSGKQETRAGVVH
Procedure: as §2, §1

T1 sequence (P20138 18-259): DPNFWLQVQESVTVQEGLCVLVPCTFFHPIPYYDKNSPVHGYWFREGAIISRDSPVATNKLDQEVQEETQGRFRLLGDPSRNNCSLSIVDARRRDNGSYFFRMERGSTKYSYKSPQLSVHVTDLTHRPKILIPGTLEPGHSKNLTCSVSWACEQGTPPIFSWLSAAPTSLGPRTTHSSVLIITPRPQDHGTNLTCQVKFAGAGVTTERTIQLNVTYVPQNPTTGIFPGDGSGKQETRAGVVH

Binder | Kd [2] [nM] | Kd [1] [nM] | also measured
C33B1784 (llama vHH on mono-Fc backbone) (Fc fusion, not shown: mono-Fc backbone) EVQLVESGGGLVQAGGSLRLSCAASGRTFSTYVMGWFRQAPGQERELVAAIVSGRNPTYADSVKSRFTISRDNAKNTIYLHMNSLQPEDTAVYYCHMYHYSSQYWGQGTQVTVSS | – | – | binding result [1]: binds
C33B919 (antibody, V domains shown) VH: QVQLVESGGGVVQPGRSLRLSCAASGFTFSSYGMHWVRQAPGKGLEWVAVISYDGSNKYYADSVKGRFTISRDNSKNTLYLQMNSLRAEDTAVYYCAKDFRSFDWLPPDSTSYYGMDVWGQGTTVTVSS VL: SYELTQPPSVSVSPGQTASITCSGDKLGDKYVSWYQQKPGQSPVVVIHQDRKRPSGIPERFSGSNFGNTATLTISGTQAMDEADYYCQAWDSSTVVFGGGTKLTVL | 0.5 | – | binding result [3]: no binding (tested: 40 nM-1.6 nM CD33 antigen)
C33B125 (antibody, V domains shown) VH: QVQLVESGGGVVQPGRSLRLSCAASGFTFSSYGMHWVRQAPGKGLEWVAVISYDGSNKYYADSVKGRFTISRDNSKNTLYLQMNSLRAEDTAVYYCAKDFRSFDWLPPDSTSYYGMDVWGQGTTVTVSS VL: SYELTQPPSVSVSPGQTASITCSGDKLGDKYVCWYQQKPGQSPVVVIHQDRKRPSGIPERFSGSNFGNTATLTISGTQAMDEADYYCQAWDSSTVVFGGGTKLTVL | 0.1 | – | Kd [3]: > 10 nM
C33B937 (antibody, V domains shown) VH: QVQLVESGGGVVQPGRSLRLSCVASGFTFSSYGMHWVRQAPGKGLEWVAVISYDGSNKYYADSVKGRFTISRDNSKNTLYLQMNSLRAEGTAVYYCAKDFRSFDWLPPDSASYHGMDVWGQGTTVTVSS VL: SYELTQPPSVSVSPGQTASITCSGDKLGDKYASWYQQKPGQSPVLVIYQDGKRPSGIPERFSGSNFGNKATLTISGTQAMDEADYYCQAWDRNTVVFGGGTKLTVL | 0.3 | – | Kd [3]: 56 nM
C33B1787 (llama vHH on mono-Fc backbone) (Fc fusion, not shown: mono-Fc backbone) EVQLVESGGGLVQAGGSLRLSCAASGFTFDDYAIGWFRQAPGKEREGVSCISSSDGSTYYVDSVKGRFTISSDNAKNTVYLQMNSLKPEDTAVYYCTALIIMYGSGSERAAAACRYKYEYWGQGTQVTVSS | – | 0.792 | –
C33B1783 (llama vHH on mono-Fc backbone) (Fc fusion, vHH is placed first; not shown: mono-Fc backbone) EVQLVESGGGLVQAGGSLRLSCAASGFTFDDYAVGWFRQVPGKEREGVSCISSSDGATYYADSVKGRFTISSDNAKNTVYLQMNSLKPEDTAVYYCTAIIVRGSGWERAAAACRYEYSYWGQGTQVTVSS | – | 0.0859 | –

More lines, main results first:

Kd [2] [nM] | Kd [1] [nM] | Binder | also measured
0.4 | – | C33B931 (antibody, V domains shown) VH: not shown VL: SYELTQPPSVSVSPGQTASITCSGDKLGSKFASWYQQKPGQSPVLVIYQDSKRPSGIPERFSGSNSGNTATLTISGTQAMDEADYYCQAWDSSTVVFGGGTKLTVL | –
0.5 | – | C33B933 (antibody, V domains shown) VH: QVQLVESGGGVVQPGRSLRLSCAASGFTFSSYGMHWVRQSPGKGLEWVAVISYDGSNKYYADSVKGRFTISRDNSKSTLYLQMNSLRAEDTAVYYCAKDFRSLDWLPPDSTSYDGMDVWGQGTTVTVSS VL: SYELTQPPSVSVSPGQTASITCSGHKLGDKYASWYQQKPGQSPVVVIYKDSKRPSGIPERFSGSNFGNTATLTISGTQAMDEADYYCQAWDSSTVVFGGGTKLTVL | –
– | 0.206 | C33B1782 (llama vHH on mono-Fc backbone) (Fc fusion, not shown: mono-Fc backbone) EVQLVESGGGLVQAGGSLRLSCAASGFTFDDYAVGWFRQAPGKEREGISCISSSDGATYYADSVKGRFTISTDNAKNTAFLQMNSLKPEDTAVYYCTAVIVRGTGWERAAAACRYEYAYWGQGTQVTVSS | –
– | 0.357 | C33B1786 (llama vHH on mono-Fc backbone) (Fc fusion, not shown: mono-Fc backbone) EVQVVESGGGVVQSGGSLTLSCEASESILSFSTMDWFRQAPGKEREGVSCIRPRYSTTTHADSIKGRFKMYSDNAKNTIYLHMNSLQPEDTAVYYCHMYHYSSQYWGQGTQVTVSS | –
